Measured values from US20250186633A1, “METHODS FOR IMAGING INTEGRIN EXPRESSION AND FOR IMAGING SITES OF ENDOMETRIOSIS” (SERAC HEALTHCARE LTD, priority 2022, published 2025).
Starred links: 1 amine or outer side, 2 acyl side, 3 side chain; linkers in the order of their positions; H or OH if unused. Positions of bridges follow the written chain, without caps; N, C: chain ends. Residues, ends and D or L forms follow the SMILES beside them. Groups on a side chain read outwards from the residue. *: point of attachment. X1 = C/C(=N/O)C(C)(C)NCCC(CCNC(C)(C)/C(C)=N\O)CCN*; Glutaryl = O=C(CCCC(=O)[*:2])[*:1]; X2 = NC(=O)COCC(=O)NCCOCCOCCOCCN*

Legend:
endometrial lesions = conditions: rat, in vivo
From the text: (§1) A rat surgical model of endometriosis was used, together with immunocompromised mouse and isogenic mouse models—all 3 animal models of endometriosis are as described by Story, L. ILAR J., 45(2) 132-138 (2004).
(§2) The uptake of ^99mTc-maraciclatide was compared with that of ^99mTc-[…]. NC100667 is described by Edwards et al [D. Edwards, Nucl.Med.Biol., 35, 365-375 (2008)]. NC100667 is a negative control peptide, in which the arginine residue of the RGD binding motif of maraciclatide (NC100692) was replaced with an alanine residue. Thus, only one amino acid residue was changed—all other aspects of the agent were otherwise the same.

endometrial lesion = conditions: mouse, in vivo
From the text: as §1, §2

endometriosis lesions = system: endometriosis lesions; parameters: species or system rat, mouse; conditions: in vivo
From the text: as §1, §2

## C/C(=N/O)C(C)(C)NCCC(CCNC(=O)CCCC(=O)NCCCC[C@@H]1NC(=O)CSC[C@@H](C(=O)NCCOCCOCCOCCNC(=O)COCC(N)=O)NC(=O)[C@H](Cc2ccccc2)NC(=O)[C@@H]2CSSC[C@H](NC1=O)C(=O)N[C@@H](CCCNC(=N)N)C(=O)NCC(=O)N[C@@H](CC(=O)O)C(=O)N2)CCNC(C)(C)/C(C)=N\O (stereo partly drawn) [^99mTc-maraciclatide, metal not drawn] ({CH2CO}-K([Glutaryl-X1])CRGDCFC-X2; disulfide 2-6; thioether N-8)
Endometrial lesions
  uptake in endometrial lesions versus control lesions of abdominal fat: higher compared to control lesions of abdominal fat
Endometrial lesion
  ratio of endometriotic lesion to blood: 4.0
  ratio of endometriotic lesion to muscle: 8.3
  retention in ovaries and uterine horns: ~35%
  uptake in endometrial lesion, time course at 1, 2 or 3 weeks post implantation: greatest at one week post uterine horn inoculation
Endometriosis lesions
  uptake and retention in animal models of endometriosis: demonstrated in all experimental animal models of endometriosis
